Data reported in patent publication US20200352839.

Tested on: Compound E7 (CTP-Cas1-FINA)

Q: With caspase-1 as the substance, how does the “HPLC analysis after treatment with caspase-1 (cleavage)” value read?
A: the compound is cleaved into two moieties, that is, finasteride and the protein transduction domain
